This assay addresses oncofetal fibronectin (human) (UniProt P02751). The experiment in a line: lateral-flow sandwich test strip (mobile FDC-6 conjugate, goat polyclonal anti-fibronectin capture), TLiIQ reflectance reader, at 50 ng/ml oncofetal fibronectin.
Chain of UniProt P02751 (P02751 32-2477): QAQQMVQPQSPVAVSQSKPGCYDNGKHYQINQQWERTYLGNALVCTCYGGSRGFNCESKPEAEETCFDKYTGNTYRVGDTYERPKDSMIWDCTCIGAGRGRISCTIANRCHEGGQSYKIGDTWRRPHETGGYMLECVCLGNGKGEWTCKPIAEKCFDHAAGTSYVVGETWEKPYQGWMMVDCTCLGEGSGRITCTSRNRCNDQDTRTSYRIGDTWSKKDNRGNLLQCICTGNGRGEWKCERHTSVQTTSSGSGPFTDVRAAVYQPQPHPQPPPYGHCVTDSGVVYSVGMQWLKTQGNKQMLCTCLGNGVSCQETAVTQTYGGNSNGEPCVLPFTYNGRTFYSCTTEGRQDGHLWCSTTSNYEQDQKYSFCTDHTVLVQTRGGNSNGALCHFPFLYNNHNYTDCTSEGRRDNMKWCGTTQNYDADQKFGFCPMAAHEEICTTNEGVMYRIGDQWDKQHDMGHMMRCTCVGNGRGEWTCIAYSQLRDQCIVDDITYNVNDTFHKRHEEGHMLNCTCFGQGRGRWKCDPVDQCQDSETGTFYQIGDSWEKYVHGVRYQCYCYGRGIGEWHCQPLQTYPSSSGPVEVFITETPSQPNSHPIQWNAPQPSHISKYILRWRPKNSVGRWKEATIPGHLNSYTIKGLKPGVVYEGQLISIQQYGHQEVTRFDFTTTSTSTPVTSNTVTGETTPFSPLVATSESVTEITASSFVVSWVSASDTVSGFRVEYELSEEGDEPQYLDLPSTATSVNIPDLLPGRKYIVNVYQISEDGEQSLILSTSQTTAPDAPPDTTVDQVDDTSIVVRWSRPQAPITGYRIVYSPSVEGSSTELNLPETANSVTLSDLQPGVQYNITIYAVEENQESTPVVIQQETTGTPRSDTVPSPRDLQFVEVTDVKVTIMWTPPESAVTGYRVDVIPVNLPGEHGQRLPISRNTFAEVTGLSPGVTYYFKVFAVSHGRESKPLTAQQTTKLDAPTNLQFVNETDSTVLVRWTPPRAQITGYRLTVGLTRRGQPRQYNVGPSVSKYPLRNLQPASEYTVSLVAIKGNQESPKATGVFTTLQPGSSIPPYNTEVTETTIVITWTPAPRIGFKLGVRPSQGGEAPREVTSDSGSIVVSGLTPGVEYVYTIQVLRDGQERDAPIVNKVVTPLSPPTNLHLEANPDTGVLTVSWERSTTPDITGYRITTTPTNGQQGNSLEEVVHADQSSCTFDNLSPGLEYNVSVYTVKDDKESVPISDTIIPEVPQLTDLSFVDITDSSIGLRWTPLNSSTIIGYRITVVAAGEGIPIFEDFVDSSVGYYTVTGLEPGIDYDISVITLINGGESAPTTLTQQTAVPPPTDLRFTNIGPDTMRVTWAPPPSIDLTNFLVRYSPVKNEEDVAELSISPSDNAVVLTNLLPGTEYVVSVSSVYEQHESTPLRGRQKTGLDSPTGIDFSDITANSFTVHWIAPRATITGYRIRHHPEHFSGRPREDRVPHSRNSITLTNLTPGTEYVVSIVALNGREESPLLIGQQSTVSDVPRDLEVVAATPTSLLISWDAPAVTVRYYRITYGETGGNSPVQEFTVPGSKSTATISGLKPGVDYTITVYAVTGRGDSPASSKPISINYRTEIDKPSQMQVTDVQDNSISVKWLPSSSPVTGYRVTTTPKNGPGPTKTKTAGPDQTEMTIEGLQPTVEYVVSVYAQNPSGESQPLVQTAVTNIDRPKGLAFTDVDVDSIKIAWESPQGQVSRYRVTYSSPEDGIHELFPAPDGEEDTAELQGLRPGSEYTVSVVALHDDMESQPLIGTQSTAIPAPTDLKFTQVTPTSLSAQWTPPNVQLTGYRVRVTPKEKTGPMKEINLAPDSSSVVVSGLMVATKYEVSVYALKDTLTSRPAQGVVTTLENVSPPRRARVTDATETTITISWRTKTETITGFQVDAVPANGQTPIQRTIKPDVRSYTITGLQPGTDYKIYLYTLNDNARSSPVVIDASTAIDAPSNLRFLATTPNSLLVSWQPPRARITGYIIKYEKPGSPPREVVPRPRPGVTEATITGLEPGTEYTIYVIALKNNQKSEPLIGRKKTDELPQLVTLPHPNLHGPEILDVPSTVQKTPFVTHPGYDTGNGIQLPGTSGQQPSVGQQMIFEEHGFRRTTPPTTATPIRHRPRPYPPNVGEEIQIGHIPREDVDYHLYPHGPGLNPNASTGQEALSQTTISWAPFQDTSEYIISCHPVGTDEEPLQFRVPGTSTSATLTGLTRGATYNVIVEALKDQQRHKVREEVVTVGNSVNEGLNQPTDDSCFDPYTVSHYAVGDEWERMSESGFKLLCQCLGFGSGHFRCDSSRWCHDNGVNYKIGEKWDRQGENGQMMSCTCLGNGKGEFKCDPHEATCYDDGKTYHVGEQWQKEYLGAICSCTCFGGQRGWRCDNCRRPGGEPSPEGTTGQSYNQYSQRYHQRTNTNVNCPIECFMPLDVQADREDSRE

Substance “FDC-6 monoclonal antibody (produced by hybridoma ATCC HB 9018)” showed a reflectance signal of 0.315.
